Test results as given in patent publication EP2974737A1.
Residue numbers refer to the chain shown, from its start.

B1: SEQ ID NO: 49 (VHH)
VHH: EVQLLESGGGLVQPGGSLRLSCAASGLPFSTKSMGWFRQAPGKGREFVSRISPGGTSRYYGDFVKGRFTISRDNSKNTLYLQMNSLRAEDTAVYYCASGERSTYIGSNYYRTNEYDYWGQGTLVTVSS
B2: SEQ ID NO: 47 (VHH)
VHH: EVQLVESGGGLVQPGGSLRLSCAASGSVFKINVMAWYRQAPGKGRELVAGIISGGSTSYADSVKGRFTISRDNAKNTLYLQMNSLRPEDTAVYYCAFITTESDYDLGRRYWGQGTLVTVSS
B3: SEQ ID NO: 45 (VHH)
VHH: EVQLVESGGGLVQAGGSLRLSCAASRSIGRLDRMGWYRHRTGEPRELVATITGGSSINYGDFVKGRFTISIDNAKNTVYLQMNNLKPEDTAVYYCNFNKYVTSRDTWGQGTQVTVSS
B4: SEQ ID NO: 87 (VHH)
VHH: B3 VHH with L11S, A14P, T41P, F62S, A74S, N84S, K86R, Q112L, S116G, S117G
B5: SEQ ID NO: 68 (VHH)
VHH: B3 VHH with T41P, F62S, A74S, N84S, K86R
B6: SEQ ID NO: 71 (VHH)
VHH: B3 VHH with A14P, T41P, F62S, A74S, N84S, K86R, Q112L, S117G
B7: SEQ ID NO: 89 (VHH)
VHH: B3 VHH with L11S, T41P, F62S, A74S, N84S, K86R, Q112L, T114Q, S116G, S117G
B8: SEQ ID NO: 84 (VHH)
VHH: B3 VHH with A14P, T41P, F62S, A74S, N84S, K86R, Q112L, S116G
B9: SEQ ID NO: 69 (VHH)
VHH: B3 VHH with A14P, T41P, F62S, A74S, N84S, K86R
B10: SEQ ID NO: 82 (VHH)
VHH: B3 VHH with A14P, T41P, F62S, A74S, N84S, K86R, P87A, Q112L
B11: SEQ ID NO: 78 (VHH)
VHH: B3 VHH with Q13R, A14P, T41P, F62S, A74S, N84S, K86R, Q112L
B12: SEQ ID NO: 83 (VHH)
VHH: B3 VHH with A14P, T41P, F62S, A74S, N84S, K86R, T90A, Q112L
B13: SEQ ID NO: 66 (VHH)
VHH: B3 VHH with L11S, A14P, T41P, F62S, A74S, N84S, K86R, Q112L
B14: SEQ ID NO: 80 (VHH)
VHH: B3 VHH with A14P, T41P, F62S, A74S, N84S, K86R, Q112L, T114Q, S116G, S117G
B15: SEQ ID NO: 67 (VHH)
VHH: B3 VHH with A14P, T41P, F62S, A74S, N84S, Q112L
B16: SEQ ID NO: 81 (VHH)
VHH: B3 VHH with L11V, A14P, T41P, F62S, A74S, N84S, K86R, Q112L
B17: SEQ ID NO: 65 (VHH)
VHH: B3 VHH with T41P, F62S, A74S, N84S, K86R, Q112L
B18: SEQ ID NO: 70 (VHH)
VHH: B3 VHH with A14P, T41P, F62S, A74S, N84S, K86R, Q112L, T114Q
B19: SEQ ID NO: 48 (VHH)
VHH: EVQLVESGGGLVQPGGSLRLSCIASGLPFSTKSMGWFRQAPGKEREFVARISPGGTSRYYGDFVKGRFAISRDNAKNTTWLQMNSLKAEDTAVYYCASGERSTYIGSNYYRTNEYDYWGTGTQVTVSS
B20: SEQ ID NO: 85 (VHH)
VHH: EVQLVESGGGSVQPGGSLRLSCAASRSIGRLDRMGWYRHRPGEPRELVATITGGSSINYGDSVKGRFTISIDNSKNTVYLQMNSLRPEDTAVYYCNFNKYVTSRDTWGQGTLVQVGG
B21: SEQ ID NO: 43 (VHH)
chain: DVQLVESGGGLVQPGGSLRLSCAASGFILDYYAIGWFRQAPGKEREGVLCIDASDDITYYADSVKGRFTISRDNSKNTVYLQMNSLRPEDTAVYYCATPIGLSSSCLLEYDYDYWGQGTLVTVSSGGGGSGGGSEVQLLESGGGLVQPGGSLRLSCAASGFTFRSFGMSWVRQAPGKGPEWVSSISGSGSDTLYADSVKGRFTISRDNSKNTLYLQMNSLRPEDTAVYYCTIGGSLSRSSQGTLVTVSSA

Target: monoclonal antibody 21-4-3
Sequence (VH, as listed by the source, form in doubt, chain 1 of 2): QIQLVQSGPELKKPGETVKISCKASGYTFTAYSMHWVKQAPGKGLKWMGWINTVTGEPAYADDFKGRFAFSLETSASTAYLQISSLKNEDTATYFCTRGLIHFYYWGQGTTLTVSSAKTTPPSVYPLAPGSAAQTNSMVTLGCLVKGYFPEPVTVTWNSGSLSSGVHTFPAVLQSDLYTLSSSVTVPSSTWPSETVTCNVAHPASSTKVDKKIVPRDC
Sequence (VL, as listed by the source, form in doubt, chain 2 of 2): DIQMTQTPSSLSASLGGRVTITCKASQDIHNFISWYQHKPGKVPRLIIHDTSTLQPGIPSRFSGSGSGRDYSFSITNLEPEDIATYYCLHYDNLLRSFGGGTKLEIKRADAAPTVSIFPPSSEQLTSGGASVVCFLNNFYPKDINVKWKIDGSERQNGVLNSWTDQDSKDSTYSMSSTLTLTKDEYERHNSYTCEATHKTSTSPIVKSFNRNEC
Test: SPR, captured 21-4-3, 500 nM; % of Fig. 9 reference

Row | binding of 21-4-3, % of Reference Sequence [%] | Binder
1 | 4 | B1
2 | 4 | B2
3 | 22 | B3
4 | 41 | B4
5 | 26 | B5
6 | 44 | B6
7 | 2 | B7
8 | 91 | B8
9 | 106 | B9
10 | 56 | B10
11 | 1 | B11
12 | 79 | B12
13 | 48 | B13
14 | 51 | B14
15 | 101 | B15
16 | 75 | B16
17 | 23 | B17
18 | 106 | B18
19 | 3 | B19
20 | 32 | B20
21 | 3 | B21
